Source: patent publication US20260295010 (published 2026)
Residue numbers refer to the chain shown, from its start. Names and notes keep the numbering of the source.

T1: IL-12RB2-hFc (human, UniProt Q99665)
T1 chain: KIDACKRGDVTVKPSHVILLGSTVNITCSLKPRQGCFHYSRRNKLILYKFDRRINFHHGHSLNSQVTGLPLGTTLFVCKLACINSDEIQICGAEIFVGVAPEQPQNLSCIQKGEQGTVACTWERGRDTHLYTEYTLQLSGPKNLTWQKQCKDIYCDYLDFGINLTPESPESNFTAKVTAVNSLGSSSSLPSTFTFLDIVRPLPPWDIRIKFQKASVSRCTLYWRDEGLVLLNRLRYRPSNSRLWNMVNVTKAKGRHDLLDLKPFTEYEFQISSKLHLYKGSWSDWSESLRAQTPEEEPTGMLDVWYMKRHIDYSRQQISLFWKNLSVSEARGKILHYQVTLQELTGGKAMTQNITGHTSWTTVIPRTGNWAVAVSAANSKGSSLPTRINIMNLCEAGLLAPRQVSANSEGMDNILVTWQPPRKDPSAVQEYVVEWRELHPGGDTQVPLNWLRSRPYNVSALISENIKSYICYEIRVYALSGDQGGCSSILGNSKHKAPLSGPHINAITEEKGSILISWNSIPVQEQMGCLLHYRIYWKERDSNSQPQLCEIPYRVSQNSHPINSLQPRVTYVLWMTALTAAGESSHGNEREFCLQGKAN

B1: IL-12p70 W16A D94K K196E L197A (protein)
chain 1: MIWELKKDVYVVELDAYPDAPGEMVVLTCDTPEEDGITWTLDQSSEVLGSGKTLTIQVKEFGDAGQYTCHKGGEVLSHSLLLLHKKEDGIWSTKILKDQKEPKNKTFLRCEAKNYSGRFTCWWLTTISTDLTFSVKSSRGSSDPQGVTCGAATLSAERVRGDNKEYEYSVECQEDSACPAAEESLPIEVMVDAVHEAKYENYTSSFFIRDIIKPDPPKNLQLKPLKNSRQVEVSWEYPDTWSTPHSYFSLTFSVQVQGKSKREKKDRVFTDKTSATVICRKNASISVRAQDRYYSSSWSEWASVPCSGGGSHHHHHH
chain 2: MRNLPVATPDPGMFPSLHHSQNLLRAVSNMLQKARQTLEFYPCTSEEIDHEDITKDKTSTVEACLPLELTKNESCLNSRETSFITNGSSLASRKTSFMMALCLSSIYEDLKMYQVEFKTMNAKLLMDPKRQIFLDQNMLAVIDELMQALNFNSETVPQKSSLEEPDFYKTKIKLCILLHAFRIRAVTIDRVMSYLNAS
B2: IL-12p70 W16A D94K K196E K259Y (protein)
chain 1: B1 chain 1 with A197L, K259Y
chain 2: B1 chain 2
B3: IL-12p70 W16A D94K (protein)
chain 1: B1 chain 1 with E196K, A197L
chain 2: B1 chain 2
B4: IL-12p70 W16A D94K K196E K265Y (protein)
chain 1: B1 chain 1 with A197L, K265Y
chain 2: B1 chain 2
B5: IL-12p70 W16A D94K K196E (protein)
chain 1: B1 chain 1 with A197L
chain 2: B1 chain 2
B6: IL-12p70 D94K K196E (protein)
chain 1: B1 chain 1 with A16W, A197L
chain 2: B1 chain 2
B7: IL-12p70 W16A K196E (protein)
chain 1: B1 chain 1 with K94D, A197L
chain 2: B1 chain 2
B8: IL-12p70 I90A (protein)
chain 1: B1 chain 1 with A16W, I90A, K94D, E196K, A197L
chain 2: B1 chain 2
B9: IL-12p70 W91A (protein)
chain 1: B1 chain 1 with A16W, W91A, K94D, E196K, A197L
chain 2: B1 chain 2
B10: IL-12p70 T203A (protein)
chain 1: B1 chain 1 with A16W, K94D, E196K, A197L, T203A
chain 2: B1 chain 2
B11: IL-12p70 D94A (protein)
chain 1: B1 chain 1 with A16W, K94A, E196K, A197L
chain 2: B1 chain 2
B12: IL-12p70 K59E (protein)
chain 1: B1 chain 1 with A16W, K59E, K94D, E196K, A197L
chain 2: B1 chain 2
B13: IL-12p70 K105A (protein)
chain 1: B1 chain 1 with A16W, K94D, K105A, E196K, A197L
chain 2: B1 chain 2
B14: IL-12p70 D88A (protein)
chain 1: B1 chain 1 with A16W, D88A, K94D, E196K, A197L
chain 2: B1 chain 2
B15: IL-12p70 K103A (protein)
chain 1: B1 chain 1 with A16W, K94D, K103A, E196K, A197L
chain 2: B1 chain 2
B16: IL-12p70 K59A (protein)
chain 1: B1 chain 1 with A16W, K59A, K94D, E196K, A197L
chain 2: B1 chain 2
B17: IL-12p70 K196A (protein)
chain 1: B1 chain 1 with A16W, K94D, E196A, A197L
chain 2: B1 chain 2
B18: IL-12p70 N104A (protein)
chain 1: B1 chain 1 with A16W, K94D, N104A, E196K, A197L
chain 2: B1 chain 2
B19: IL-12p70 D88K (protein)
chain 1: B1 chain 1 with A16W, D88K, K94D, E196K, A197L
chain 2: B1 chain 2
B20: IL-12p70 E87K,K196E (protein)
chain 1: B1 chain 1 with A16W, E87K, K94D, A197L
chain 2: B1 chain 2
B21: IL-12p70 N201A (protein)
chain 1: B1 chain 1 with A16W, K94D, E196K, A197L, N201A
chain 2: B1 chain 2
B22: IL-12p70 D42K (protein)
chain 1: B1 chain 1 with A16W, D42K, K94D, E196K, A197L
chain 2: B1 chain 2
B23: IL-12p70 H195A (protein)
chain 1: B1 chain 1 with A16W, K94D, H195A, E196K, A197L
chain 2: B1 chain 2
B24: IL-12p70 E46K (protein)
chain 1: B1 chain 1 with A16W, E46K, K94D, E196K, A197L
chain 2: B1 chain 2
B25: IL-12p70 K103E (protein)
chain 1: B1 chain 1 with A16W, K94D, K103E, E196K, A197L
chain 2: B1 chain 2
B26: IL-12p70 E87A (protein)
chain 1: B1 chain 1 with A16W, E87A, K94D, E196K, A197L
chain 2: B1 chain 2
B27: IL-12p70 Q43A (protein)
chain 1: B1 chain 1 with A16W, Q43A, K94D, E196K, A197L
chain 2: B1 chain 2
B28: IL-12p70 H195E (protein)
chain 1: B1 chain 1 with A16W, K94D, H195E, E196K, A197L
chain 2: B1 chain 2
B29: IL-12p70 I278Y (protein)
chain 1: B1 chain 1 with A16W, K94D, E196K, A197L, I278Y
chain 2: B1 chain 2
B30: IL-12p70 S44A (protein)
chain 1: B1 chain 1 with A16W, S44A, K94D, E196K, A197L
chain 2: B1 chain 2
B31: IL-12p70 Y17A (protein)
chain 1: B1 chain 1 with A16W, Y17A, K94D, E196K, A197L
chain 2: B1 chain 2
B32: IL-12p70 D162A (protein)
chain 1: B1 chain 1 with A16W, K94D, D162A, E196K, A197L
chain 2: B1 chain 2
B33: IL-12p70 D162K (protein)
chain 1: B1 chain 1 with A16W, K94D, D162K, E196K, A197L
chain 2: B1 chain 2
B34: IL-12p70 S45A (protein)
chain 1: B1 chain 1 with A16W, S45A, K94D, E196K, A197L
chain 2: B1 chain 2
B35: IL-12p70 E87K (protein)
chain 1: B1 chain 1 with A16W, E87K, K94D, E196K, A197L
chain 2: B1 chain 2
B36: IL-12p70 P21A (protein)
chain 1: B1 chain 1 with A16W, P21A, K94D, E196K, A197L
chain 2: B1 chain 2
B37: IL-12p70 E46A (protein)
chain 1: B1 chain 1 with A16W, E46A, K94D, E196K, A197L
chain 2: B1 chain 2
B38: IL-12p70 D42A (protein)
chain 1: B1 chain 1 with A16W, D42A, K94D, E196K, A197L
chain 2: B1 chain 2

Target: T1, IL-12RB2-hFc
Assay: SPR, 25C

Row | Kd | Binder
1 | 3 nM | B1
2 | 1.9 nM | B2
3 | 2.4 nM | B3
4 | 4.6 nM | B4
5 | 2.3 nM | B5
6 | 2.3 nM | B6
7 | 2.8 nM | B7

Target: T1, IL-12RB2-hFc
Assay: SPR, 25C
Remark: another data set of the same source

Row | Kd | Binder
8 | 0.35 nM | B8
9 | 0.53 nM | B9
10 | 0.5 nM | B10
11 | 0.43 nM | B11
12 | 0.49 nM | B12
13 | 0.34 nM | B13
14 | 0.38 nM | B14
15 | 0.33 nM | B15
16 | 2.1 nM | B16
17 | 0.58 nM | B17
18 | 0.39 nM | B18
19 | 0.31 nM | B19
20 | 0.49 nM | B20
21 | 0.5 nM | B21
22 | 0.45 nM | B22
23 | 0.54 nM | B23
24 | 0.52 nM | B24
25 | 0.34 nM | B25

Each binder was assayed against IL-12RB1-hFc (human, UniProt P42701) (assay: SPR, 25C).

Row | Kd | Binder
26 | 0.06 nM | B8
27 | 0.07 nM | B9
28 | 0.04 nM | B10
29 | 0.69 nM | B11
30 | 0.07 nM | B12
31 | 0.06 nM | B13
32 | 0.03 nM | B14
33 | 0.04 nM | B26
34 | 0.03 nM | B27
35 | 0.06 nM | B28
36 | 0.04 nM | B15
37 | 0.07 nM | B16
38 | 0.04 nM | B17
39 | 0.04 nM | B29
40 | 0.05 nM | B18
41 | 0.02 nM | B19

Row | Kd | Binder
42 | 0.05 nM | B30
43 | 0.24 nM | B20
44 | 0.07 nM | B31
45 | 0.04 nM | B21
46 | 0.05 nM | B32
47 | 0.07 nM | B33
48 | 0.03 nM | B22
49 | 0.13 nM | B23
50 | 0.04 nM | B34
51 | 0.04 nM | B24
52 | 0.11 nM | B35
53 | 0.11 nM | B25
54 | 0.06 nM | B36
55 | 0.06 nM | B37
56 | 0.07 nM | B38
